Measurements published in PMC3593662.

Legend:
[1] = system: O=[N+]([O-])c1ccccc1O[C@@H]1O[C@H](CO)[C@H](O)[C@H](O)[C@H]1O; experiment: o-nitrophenol release, A420, Michaelis-Menten non-linear fit; type: biochemical, Bifidobacterium longum subsp. infantis; conditions: optimum pH 5.0 and optimum temperature 45-55 °C, 0.1-4 mM ONPG
[2] = substrate: O=[N+]([O-])c1ccccc1O[C@@H]1O[C@H](CO)[C@H](O)[C@H](O)[C@H]1O; experiment: as above; type: biochemical, Bifidobacterium longum; conditions: optimum pH 5.0-6.0 and optimum temperature 45-55 °C, 0.1-4 mM ONPG

Blon_0268 (Bifidobacterium longum subsp. infantis ATCC 15697 = JCM 1222 = DSM 20088)
Km [1]: 0.60 mM | kcat [1]: 5.11 s⁻¹ | kcat/Km [1]: 8500 M⁻¹ s⁻¹

B1: Blon_2123 (Bifidobacterium longum subsp. infantis ATCC 15697 = JCM 1222 = DSM 20088) (protein)
chain: MRARRDFAWPKLLTADGRGIAFGGDYNPDQWPEDVWDDDIRLMGQAGVNTVALAIFSWDRLQPTEDHWNFDWLDRIIDKLGQAGIAVDLASATATAPLWLYENHPEVLPRDKYGHPVNAGSRQSWSPTSPVFKEYALTLCRKLAERYGTNPYVTAWHMGNEYGWNNRDDYSDNALEAFRAWCRRKYGTIDALNQAWGTTFWGQEMTGFDEVLIPRFMGADSMVNPGQKLDFERFGNDMLLDFYKAERDAIAEICPDKPFTTNFMISTDQCCMDYAAWAEEVNFVSNDHYFHEGESHLDELACSDALVDSLALGKPWYVMEHSTSAVQWKPLNTRKRNGETVRDSLAHVAMGADAINFFQWRASAFGAEAFHSAMVPHAGENTKLFRQVCELGATLQALADAGVQGSELAHADTAILFSAESEWATRSETLPSMKLNHWHDVRDWYRAFLNAGARADIVPLAYDWSSYKTIVLPTVLMLSDADTRRLAGFVQDGGRVVVGYATGLLDERFHTWLGGYPGAGDGLLRSMLGVRGEEFNILGTETEDEPSEIRLASTGDSPTMDGAVTRLWQNDVTVAGPHVQVLAAYAGEEANEWELDGTAAITRNTYGEGEAYFLGCDLGVSDLTRFVGGWLAARPQDGRQPEANLRSPASGVTSDVLHTVRQSDDAIFDFYLTRGKSDVELRDIAGEPIVLFRAERGSDGGAYTVHRNGVLVMKRPNPSV
Km [2]: 1.06 mM | kcat [2]: 270 s⁻¹ | kcat/Km [2]: 250000 M⁻¹ s⁻¹
